Test results published in patent US20160002357A1 (Pfizer, published 2016).
Positions count from the first letter of the chain named. Values joined by “and” are separate entries in the source; they are usually repeats but may differ in a detail not shown here. Identical values can stand only once. Like-named read-outs stand apart in the source and are kept apart here.

Legend:
[1] = molecular target: T1, human P-cadherin expressed on the cell surface (human, UniProt P22223 108-829); assay: cell-based or functional assay
T1 sequence (P22223 108-829): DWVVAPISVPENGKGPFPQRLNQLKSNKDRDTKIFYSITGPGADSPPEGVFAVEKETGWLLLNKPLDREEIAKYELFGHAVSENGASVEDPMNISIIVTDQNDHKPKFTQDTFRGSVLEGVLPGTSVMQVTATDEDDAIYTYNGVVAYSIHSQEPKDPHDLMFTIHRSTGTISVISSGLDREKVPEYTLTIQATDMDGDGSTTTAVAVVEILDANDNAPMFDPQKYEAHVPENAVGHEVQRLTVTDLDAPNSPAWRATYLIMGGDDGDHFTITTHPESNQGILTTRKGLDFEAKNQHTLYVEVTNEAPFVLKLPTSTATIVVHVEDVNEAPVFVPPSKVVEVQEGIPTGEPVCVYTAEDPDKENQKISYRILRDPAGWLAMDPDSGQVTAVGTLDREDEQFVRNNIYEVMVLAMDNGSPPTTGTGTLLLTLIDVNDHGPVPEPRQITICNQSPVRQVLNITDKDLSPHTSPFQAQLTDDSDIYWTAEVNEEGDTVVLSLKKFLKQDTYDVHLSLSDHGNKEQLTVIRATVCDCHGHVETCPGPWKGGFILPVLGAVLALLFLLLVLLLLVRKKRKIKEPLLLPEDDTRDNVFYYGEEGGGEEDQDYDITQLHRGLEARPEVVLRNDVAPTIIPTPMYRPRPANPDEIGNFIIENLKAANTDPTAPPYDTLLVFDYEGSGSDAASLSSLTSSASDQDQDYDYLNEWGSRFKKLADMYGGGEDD

[2] = molecular target: T2, cynomolgus monkey P-cadherin ECD (cynomolgus monkey); assay: SPR Biacore pH 7.4
T2 construct: extracellular domain; also called cyno P-cadherin ECD; Cyno P-cadherin

[3] = molecular target: T2, cynomolgus monkey P-cadherin ECD; assay: SPR Biacore pH 7.4, average
[4] = molecular target: T2, cynomolgus monkey P-cadherin ECD; assay: SPR Biacore affinity
[5] = molecular target: T1, human P-cadherin expressed on the cell …; assay: cell-based or functional assay; remark: listed apart in the source
[6] = molecular target: T2, cynomolgus monkey P-cadherin ECD; assay: SPR Biacore, average
P-cadherin ECD1-2-Fc = molecular target: T3, P-cadherin ECD1-2-Fc (human, UniProt P22223 108-328); assay: protein ELISA
T3 construct: Signal peptide and pro-peptide of the construct left out (see ECD1-Fc); not shown: cleavable linker; hinge and CH2 and CH3 domains of human IgG1
T3 sequence (P22223 108-328): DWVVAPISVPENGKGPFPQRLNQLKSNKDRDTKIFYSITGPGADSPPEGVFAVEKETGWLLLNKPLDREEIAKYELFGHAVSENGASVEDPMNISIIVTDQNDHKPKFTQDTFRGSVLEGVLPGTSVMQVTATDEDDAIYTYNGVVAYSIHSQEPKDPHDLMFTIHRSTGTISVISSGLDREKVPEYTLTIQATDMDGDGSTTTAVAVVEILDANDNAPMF

P-cadherin ECD1-Fc = molecular target: T4, P-cadherin ECD1-Fc (human, UniProt P22223 108-215); assay: protein ELISA
T4 construct: PACE was co-transfected for processing of the propeptide, so both are left out here; not shown: cleavable linker; hinge and CH2 and CH3 domains of human IgG1
T4 sequence (P22223 108-215): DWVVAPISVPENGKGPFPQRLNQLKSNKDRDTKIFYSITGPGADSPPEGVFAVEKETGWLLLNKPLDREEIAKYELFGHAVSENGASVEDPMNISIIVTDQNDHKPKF

[7] = molecular target: T1, human P-cadherin expressed on the cell …; assay: cell-based or functional assay; remark: listed apart in the source
[8] = molecular target: T2, cynomolgus monkey P-cadherin ECD; assay: SPR Biacore
muP-cad-ECD [9] = molecular target: T5, muP-cad-ECD (murine, UniProt P10287 100-647); assay: SPR Biacore
T5 construct: extracellular domain; also called murine P-cadherin; murine P-cadherin ECD
T5 sequence (looked up): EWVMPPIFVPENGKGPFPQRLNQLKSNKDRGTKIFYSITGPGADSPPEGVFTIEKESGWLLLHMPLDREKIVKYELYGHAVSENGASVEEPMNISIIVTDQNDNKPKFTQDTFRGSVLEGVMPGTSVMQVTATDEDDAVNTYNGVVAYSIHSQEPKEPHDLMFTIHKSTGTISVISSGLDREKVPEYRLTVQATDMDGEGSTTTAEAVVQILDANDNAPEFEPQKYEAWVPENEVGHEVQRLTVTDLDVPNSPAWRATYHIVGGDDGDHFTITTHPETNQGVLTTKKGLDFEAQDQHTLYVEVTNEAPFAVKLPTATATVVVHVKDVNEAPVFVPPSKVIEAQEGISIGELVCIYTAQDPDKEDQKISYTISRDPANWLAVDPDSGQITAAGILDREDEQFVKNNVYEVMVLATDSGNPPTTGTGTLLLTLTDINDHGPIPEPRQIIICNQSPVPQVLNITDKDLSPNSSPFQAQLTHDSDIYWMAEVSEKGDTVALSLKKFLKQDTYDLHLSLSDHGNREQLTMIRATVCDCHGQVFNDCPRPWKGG

[10] = molecular target: T2, cynomolgus monkey P-cadherin ECD; assay: SPR Biacore affinity; remark: listed apart in the source
[11] = molecular target: T1, human P-cadherin expressed on the cell …; assay: cell ELISA, SW480-huPcad cells
[12] = molecular target: T1, human P-cadherin expressed on the cell …; assay: cell ELISA, CHO-huPcad cells
huP-cad-ECD = molecular target: T6, huP-cad-ECD (human, UniProt P22223 108-654); assay: ELISA, recombinant protein
T6 construct: extracellular domain; also called recombinant human P-cadherin; human P-cadherin-ECD
T6 sequence (P22223 108-654): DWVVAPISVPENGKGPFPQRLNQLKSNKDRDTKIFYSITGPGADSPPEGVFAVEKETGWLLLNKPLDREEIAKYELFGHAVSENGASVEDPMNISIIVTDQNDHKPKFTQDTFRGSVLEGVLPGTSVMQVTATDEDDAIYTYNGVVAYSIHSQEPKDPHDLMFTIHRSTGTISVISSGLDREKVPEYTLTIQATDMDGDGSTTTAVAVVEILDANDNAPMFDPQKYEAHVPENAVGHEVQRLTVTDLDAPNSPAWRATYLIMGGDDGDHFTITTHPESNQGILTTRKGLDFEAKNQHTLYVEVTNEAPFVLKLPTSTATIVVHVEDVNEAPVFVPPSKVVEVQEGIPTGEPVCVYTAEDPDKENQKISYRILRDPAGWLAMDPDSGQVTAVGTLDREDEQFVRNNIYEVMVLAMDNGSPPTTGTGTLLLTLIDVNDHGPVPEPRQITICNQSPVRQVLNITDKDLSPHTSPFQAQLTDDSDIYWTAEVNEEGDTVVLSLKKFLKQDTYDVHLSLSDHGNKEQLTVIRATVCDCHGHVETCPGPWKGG

huP-cad-ECD biotinylated = molecular target: T7, huP-cad-ECD biotinylated (human, UniProt P22223 108-654, biotinylated (sites not given)); assay: ELISA, recombinant protein
T7 construct: extracellular domain
T7 sequence (P22223 108-654): as above

muP-cad-ECD [13] = molecular target: T5, muP-cad-ECD; assay: ELISA, recombinant protein
[14] = molecular target: T1, human P-cadherin expressed on the cell …; assay: cell ELISA, H1650 cells

B1: 153 VF-DART (bispecific antibody)
chain 1: QSVLTQPPSVSAAPGQKVTISCSGSSSNIGNNYVSWYQQLPGTAPKLLIYDNNKRPSGIPDRFSGSKSGTSATLGITGLQTGDEADYYCGTWDSSLSGVVFGGGTKLTVLGGGSGGGGEVQLVESGGGLVQPGGSLRLSCAASGFTFSTYAMNWVRQAPGKGLEWVGRIRSKYNNYATYYADSVKGRFTISRDDSKNSLYLQMNSLKTEDTAVYYCVRHGNFGNSYVSWFAYWGQGTLVTVSS
chain 2: QAVVTQEPSLTVSPGGTVTLTCRSSTGAVTTSNYANWVQQKPGQAPRGLIGGTNKRAPWTPARFSGSLLGGKAALTITGAQAEDEADYYCALWYSNLWVFGGGTKLTVLGGGGSGGGGEVQLVQSGAEVKKPGASVKVSCKASGYTFTSYGISWVRQAPGQGLEWMGWISAYNGNTNYAQKLQGRVTMTTDTSTSTAYMELRSLRSDDTAVYYCATIDTANAFGIWGQGTMVTVSS
modifications: One interchain disulfide between the Linker 2 cysteines; these linkers are left out of the letters.
notes: not shown: The C-terminal cysteine Linker 2 on each chain
DU145 CTL (LDH) EC50 [1]: 0.4 pM | HCT116 CTL (Luc) EC50 [1]: 0.5 pM | Kd [2]: 0.332 nM and 0.304 nM | koff [2]: 0.00024 s⁻¹ and 0.000229 s⁻¹ | kon [2]: 722000 M⁻¹ s⁻¹ and 752000 M⁻¹ s⁻¹ | t½ [2]: 45.4 min and 47.6 min | Kd [3]: 0.318 nM | Kd [4]: 0.31 nM

B2: 154 VF-DART (bispecific antibody, not shown: small tags and cut ends)
chain 1: B1 chain 1 with G98S, V99Y, G103T, L107V
chain 2: B1 chain 2 with N221T, G224D
DU145 CTL (LDH) EC50 [1]: 2.4 pM | HCT116 CTL (Luc) EC50 [1]: 8 pM | Kd [4]: 2.85 nM

B3: 153 LP-DART (bispecific antibody)
chain 1: QSVLTQPPSVSAAPGQKVTISCSGSSSNIGNNYVSWYQQLPGTAPKLLIYDNNKRPSGIPDRFSGSKSGTSATLGITGLQTGDEADYYCGTWDSSLSGVVFGGGTKLTVLGGGSGGGGEVQLVESGGGLVQPGGSLRLSCAASGFTFSTYAMNWVRQAPGKGLEWVGRIRSKYNNYATYYADSVKGRFTISRDDSKNSLYLQMNSLKTEDTAVYYCVRHGNFGNSYVSWFAYWGQGTLVTVSSGCPPCPAPEAAGAPSVFLFPPKPKDTLMISRTPEVTCVVVDVSHEDPEVKFNWYVDGVEVHNAKTKPREEQYNSTYRVVSVLTVLHQDWLNGKEYKCKVSNKALPAPIEKTISKAKGQPREPQVCTLPPSREEMTKNQVSLWCLVKGFYPSDIAVEWESNGQPENNYKTTPPVLDSDGSFFLYSKLTVDKSRWQQGNVFSCSVMHEALHNHYTQKSLSLSPG
chain 2: QAVVTQEPSLTVSPGGTVTLTCRSSTGAVTTSNYANWVQQKPGQAPRGLIGGTNKRAPWTPARFSGSLLGGKAALTITGAQAEDEADYYCALWYSNLWVFGGGTKLTVLGGGGSGGGGEVQLVQSGAEVKKPGASVKVSCKASGYTFTSYGISWVRQAPGQGLEWMGWISAYNGNTNYAQKLQGRVTMTTDTSTSTAYMELRSLRSDDTAVYYCATIDTANAFGIWGQGTMVTVSSGCPPCPAPEAAGAPSVFLFPPKPKDTLMISRTPEVTCVVVDVSHEDPEVKFNWYVDGVEVHNAKTKPREEQYNSTYRVVSVLTVLHQDWLNGKEYKCKVSNKALPAPIEKTISKAKGQPREPQVYTLPPCREEMTKNQVSLSCAVKGFYPSDIAVEWESNGQPENNYKTTPPVLDSDGSFFLVSKLTVDKSRWQQGNVFSCSVMHEALHNHYTQKSLSLSPG
DU145 CTL (LDH) EC50 [5]: 0.6 pM | HCT116 CTL (Luc) EC50 [5]: 0.4 pM | Kd [6]: 0.521 nM | binding result (P-cadherin ECD1-2-Fc): no binding | binding result (P-cadherin ECD1-Fc): no binding | CTL assay on CHO P-cadherin cells, cell viability after 48 hours, EC50 [7]: 0.41 pM | Kd [8]: 0.683 nM and 0.359 nM | koff [8]: 0.0002 s⁻¹ and 0.000209 s⁻¹ | kon [8]: 293000 M⁻¹ s⁻¹ and 581000 M⁻¹ s⁻¹ | t½ [8]: 54.4 min and 52.2 min | Kd [2]: 0.683 nM and 0.359 nM | koff [2]: 0.0002 s⁻¹ and 0.000209 s⁻¹ | kon [2]: 293000 M⁻¹ s⁻¹ and 581000 M⁻¹ s⁻¹ | t½ [2]: 54.4 min and 52.2 min | binding result (muP-cad-ECD [9]): no binding | Kd [3]: 0.521 nM | Kd [10]: 0.521 nM

B4: 154 LP-DART (bispecific antibody)
chain 1: B3 chain 1 with G98S, V99Y, G103T, L107V
chain 2: B3 chain 2 with N221T, G224D
DU145 CTL (LDH) EC50 [5]: 1.7 pM | HCT116 CTL (Luc) EC50 [5]: 7.2 pM | Kd [6]: 5.5 nM | Kd [8]: 5.47 nM and 5.53 nM | koff [8]: 0.00332 s⁻¹ and 0.00343 s⁻¹ | kon [8]: 607000 M⁻¹ s⁻¹ and 620000 M⁻¹ s⁻¹ | t½ [8]: 3.27 min and 3.18 min | Kd [10]: 5.5 nM

B5: 35 scFv-Fc (Fc fusion)
VH: EVQLVQSGAEVKKPGASVKVSCKASGYTFTSYGISWVRQAPGQGLEWMGWISAYNGNTNYAQKLQGRVTMTTDTSTSTAYMELRSLRSDDTAVYYCATIDTASAFDIWGQGTMVTVSS
VL: QSVLTQPPSVSAAPGQKVTISCSGSSSNIGNNYVSWYQQLPGTAPKLLIYDNNKRPSGIPDRFSGSKSGTSATLGITGLQTGDEADYYCGTWDSSLSAVVFGGGTKLTVL
notes: also called P-CAD 35; P-cadherin clone 35 scFv-Fc
EC50 [11]: 0.173 nM | EC50 [12]: 0.276 nM | EC50 (huP-cad-ECD): 2.5 nM | EC50 (huP-cad-ECD biotinylated): 0.0176 nM | binding result (muP-cad-ECD [13]): no binding | EC50 [14]: 0.163 nM

B6: 33 scFv-Fc (Fc fusion)
VH: B5 VH with E1Q, V2M, T98L, D100G, T101S, A102G, S103V
VL: B5 VL with V99Y, G103T, L107V
notes: also called P-CAD 33; P-cadherin clone 33 scFv-Fc
EC50 [11]: 0.424 nM | EC50 [12]: 0.493 nM | EC50 (huP-cad-ECD): 3.46 nM | EC50 (huP-cad-ECD biotinylated): 0.101 nM | binding result (muP-cad-ECD [13]): no binding | EC50 [14]: 0.567 nM

B7: 34 scFv-Fc (Fc fusion)
VH: B5 VH
VL: B5 VL with L4V, V99W
notes: also called P-CAD 34; P-cadherin clone 34 scFv-Fc
EC50 [11]: 0.442 nM | EC50 [12]: 0.394 nM | EC50 (huP-cad-ECD): 11.2 nM | EC50 (huP-cad-ECD biotinylated): 0.194 nM | binding result (muP-cad-ECD [13]): no binding | EC50 [14]: 0.494 nM
